Data reported in doi:10.1101/2020.12.31.424868 (bioRxiv, 2020).

B1: FluA-20 (antibody, V domains shown)
VH: QVQLEESGPGLVKPSETLSLTCSVSGVSVTSDIYYWTWIRQPPGKGLEWIGYIFYNGDTNYNPSLKSRVTMSIDTSKNEFSLRLTSVTAADTAVYFCARGTEDLGYCSSGSCPNHWGQGTLVTVSS
VL: DIVMTQSPSSLSASIGDRVTITCRPSQNIRSFLNWFQHKPGKAPKLLIYAASNLQSGVPSRFSGSGSGTEFTLTIRSLQPEDFATYYCQQSYNTPPTFGQGTKVEIK
B2: FluA-151 (antibody, V domains shown)
VH: QELLVESGGGVVQPGRSLRLSCVGSGFTFRTYGMHWVRQAPGRRPEWVALISNDGSREYYADSVKGRFTISRDNSRNTLYLQMNSLTVADTAVYYCAKFIPDPNYGEFYFHHWGQGTLVTVSS
VL: DIQMTQSPSSLSASVEDRVTITCRASQSINKYLNWYQQKPGKAPKLLIYAADNLQDAVPSRFSGSGSGTDFTLTITGLHPDDLATYYCQQSYTIPPTFGHGTKVEIK
B3: mAb 5J8 (antibody, V domains shown)
VH: EVQLVESGPGLVKPSDILSLTCAVSGYSISSNYYWGWIRQPPGKGLEWIGSIYHSGSTYYKPSLESRLGISVDTSKNQFSLKLSFVSAADTAVYYCARHVRSGYPDTAYYFDKWGQGTLVTVSS
VL: SYVLTQPPSVSVAPGETARISCGGNNIGTKVLHWYQQTPGQAPVLVVYDDSDRPSGIPERFSGSNSGNTATLTISRVEVGDEADYYCQVWDISTDQAVFGGGTKLTVL
B4: mAb H5.28, hybridoma-generated IgG (antibody, V domains shown)
VH: EVQLVESGGGLVQPGGSLRLSCAASGFTFSTYWMTWVRQAPGKGLEWVANINQDGGEKYFVDSVKGRFTISRDNAKNSLFLQMNTLRAEDTAVYYCARGFLERLLLGRQGAYYYGMDVWGQGTTVTVSS
VL: DIQMTQSPSSLSASVGDRVSMTCRASQIISSSLNWYQQKPGKAPKLLIYAASNLQSGVPSRFSGSGSGTDFTLTISSLQPEDFATYYCQQSYSTPPELTFGGGTKVEIK
B5: H5.28 Fab (recombinant) (Fab, V domains shown)
VH: EVQLVESGGGLVQPGGSLRLSCAASGFTFSTYWMTWVRQAPGKGLEWVANINQDGGEKYFVDSVKGRFTISRDNAKNSLFLQMNTLRAEDTAVYYCARGFLERLLLGRQGAYYYGMDVWGQGTTVTVSS
VL: DIQMTQSPSSLSASVGDRVSMTCRASQIISSSLNWYQQKPGKAPKLLIYAASNLQSGVPSRFSGSGSGTDFTLTISSLQPEDFATYYCQQSYSTPPELTFGGGTKVEIK
B6: mAb H5.31, hybridoma-generated IgG (antibody, V domains shown)
VH: EVQLVQSGGGLVQPGGSLRLSCEASRFTSSSYWITWVRQAPGKGLEWVANIKQDGSEKYFVDSVKGRFTISRDNASNSLYLQMSSLRAEDTAVYYCARGFLERLLLGRQGAYYYGMDVWGQGTTVTVSS
VL: DIVMTQSPFSLSASVGDRVTMTCRASQSISSSLNWYQQKPGKAPKLLIYAASNLQSGVPSRFSGSGSGTDFTLTISSLQPEDFATYYCQQSYTMPPELTFGGGTKVEIK

Tests used:
[1] = target: HA from A/New York/107/2003 (Influenza A virus A/New York/107/2003 …, UniProt B2LVD7, strain); assay: ELISA
[2] = target: trimeric recombinant HA from H1 A/California/04/2009 (Influenza A virus A/California/04/2009 …, UniProt C3W5S1); assay: BLI
[3] = target: monomeric HA head domain from H1 A/California/07/2009 (influenza A virus A/California/07/2009 …, UniProt C3W5X2); assay: BLI
IN/05 HA = IN/05 HA (Influenza A virus A/Indonesia/5/2005 …, UniProt C5MRF2, strain); assay: ELISA
[4] = target: head domain of VN/04 HA (A/Vietnam/1203/2004 H5N1), monomeric (Influenza A virus A/Vietnam/1203/2004 …, strain); assay: HDX-MS

Binder | binding result [1] | binding result (IN/05 HA) | other results
B1 | no binding | – | –
B2 | no binding | – | –
B3 | – | – | binding result [2]: binds; binding result [3]: binds
B4 | – | binds | –
B5 | – | – | binding result [4]: binds
B6 | – | binds | –
